Data from patent publication US20150252099A1 (TRELLIS BIOSCIENCE, published 2015).
Where a chain is given by its changes, count along the chain named. Read-outs that look alike come from different tables or passages of the source.

T1: AD-2 peptide NETIYNTTLKYGDV (human cytomegalovirus (CMV))
T1 construct: also called peptide AD-2; conserved peptide designated AD-2
T1 peptide: NETIYNTTLKYGDV

B1: mAb 4A2 (antibody, V domains shown)
VH: QVLLEESGGGVVQPGRSLRLSCAGSGFTFNRHGIHWVRQAPGKGLEWVTVISSDGANQQYAESVKGRFIISRDNSKNTVYLEMNSLRNDDTGVYFCARDGRCEGERCYSGVTDFWGQGTLV
VL: EIVLTQSPATLSLSPGERATLSCRASQNIGGYLAWFQQKAGQAPRLLIYDASIRATGIPARFSGSGSGTDFTLTISSLEPEDFAVYYCQQRNSWPPLTFG
notes: Human mAb
B2: mAb 19B10 (antibody, V domains shown)
VH: QVQLQQSGPGLVKPSQTLSLTCTVSGGSISSGDFCWNWIRQPPGKGLEWIGYICYTGDTYYNPPLNSRVTISVDRSRNQISLRLSSVTAADTAVYYCAREDRRQLHSRPYFYYGLDVWGRGTKVTVSS
VL: EIVMTQSPLSLPVTPGETASISCRSSQSLLHSNGHNYLDWYLQKPGQSPHLLIYLGSIRASGVPDRFSGSGTGTDFTLKISRVEAEDVGVYYCMQALQTPNTFGQGTKLEIRR
notes: Human mAb
B3: MAB310 (antibody, V domains shown)
VH: QVQLVQSGGGVVQPGTSLRLSCAASGFMFNTYNMHWVRQAPGKGLEWVAVISNDGTYKYSADSLKGRFSISRDNSKNTLYLHMNSLRPDDTAVYYCARDGRSVGGFSGILDPWGQGTLVTVSS
VL: EIVLTQSPATLSLSPGDRATLSCRASQTVGRYLAWYQQKPGQAPRLLIYDASDRATGISARFSGSGSGTDFTLTISSLEPEDFAVYYCQQRSNWPPLTFGGGTKVEIKR
B4: MAB313 (antibody, V domains shown)
VH: QVQLVQSGGGVIQPGRSLTLSCAASGFTFSAYSLHWVRQAPGKGLQWVAVISFDGNFKHFADSLRGRFTISRDNSKNRFYLQMNGLRGEDTAVYYCARDGRAVDGFSGILDFWGQGTLVSVSS
VL: EIVMTQSPATLSLSPGERATLSCRASQSVGRYLTWFQQKPGQAPRLLIYDASERATGIPARFSGSGSGTDFTLTISSLEPEDFAVYYCQQRANWPPLTFGGGTKVEIK
B5: MAB345 (antibody, V domains shown)
VH: QVQLVESGGGVVQPGRSLRLSCAASGFTFSDYNMHWVRQAPGKGLEWVAVISIDGTYKYSADSVAGRFSLSRDNSKNTLYLQMNSLRPDDTAIYYCARDGRSVGGFSGILDPWGQGTLVTVSS
VL: B4 VL with E17D, R31S, T34A, F36Y, I48M, A51S, E53V, A92N
notes: also called ATCC PTA-121705
B6: MAB338 (antibody, V domains shown)
VH: QVQLVESGGGVVQPGRSLRLSCSGSGFTFSDYNLHWVRQAPGKGLEWVAVISIDGTNKHHADSVKGRFTISRDNSKNTVNLEMSRLKAEDTAVYYCVRDGRSIGGYSGIFDPWGQGTLVTVSS
VL: B4 VL with M4L, G30D, T34A, F36Y, E53Q, T74A, F83V, A92S, V105I

What was measured:
[1] = target: T2, CMV gB protein (strain AD169), purified (human cytomegalovirus (CMV), strain …, UniProt P06473 32-906, limits assumed); experiment: cell-based or functional assay
T2 sequence (P06473 32-906 limits assumed): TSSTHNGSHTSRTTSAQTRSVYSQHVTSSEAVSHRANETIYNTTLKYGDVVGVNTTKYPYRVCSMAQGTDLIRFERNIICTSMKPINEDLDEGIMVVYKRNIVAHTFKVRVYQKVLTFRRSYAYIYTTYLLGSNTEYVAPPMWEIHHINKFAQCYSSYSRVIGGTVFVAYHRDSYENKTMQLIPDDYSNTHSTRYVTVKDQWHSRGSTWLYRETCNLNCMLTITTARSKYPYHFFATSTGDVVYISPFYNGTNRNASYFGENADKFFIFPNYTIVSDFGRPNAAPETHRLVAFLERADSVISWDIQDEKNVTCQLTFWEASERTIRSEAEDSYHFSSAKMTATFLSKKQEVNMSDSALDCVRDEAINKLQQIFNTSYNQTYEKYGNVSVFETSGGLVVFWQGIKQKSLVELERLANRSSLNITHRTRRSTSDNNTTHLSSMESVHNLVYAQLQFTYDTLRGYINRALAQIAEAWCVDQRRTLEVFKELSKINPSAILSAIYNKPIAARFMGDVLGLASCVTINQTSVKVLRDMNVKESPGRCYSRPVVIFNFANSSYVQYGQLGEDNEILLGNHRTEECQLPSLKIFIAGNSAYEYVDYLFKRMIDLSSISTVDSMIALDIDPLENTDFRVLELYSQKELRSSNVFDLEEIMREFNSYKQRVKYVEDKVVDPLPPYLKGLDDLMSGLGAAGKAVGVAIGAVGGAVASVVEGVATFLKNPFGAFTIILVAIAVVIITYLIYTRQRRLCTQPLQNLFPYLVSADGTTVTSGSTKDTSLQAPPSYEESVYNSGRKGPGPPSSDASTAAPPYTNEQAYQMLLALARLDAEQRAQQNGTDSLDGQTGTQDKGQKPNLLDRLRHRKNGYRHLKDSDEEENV

[2] = target: T2, CMV gB protein (strain AD169), purified; experiment: ForteBio biosensor, antibody coupled to the probe, gB in solution
Procedure: (§1) In this method, the carboxylic acid groups on Amine Reactive Biosensors were activated with EDC/NHS. […] The gB protein was incubated with the Ab-coated probe and rates of association to and dissociation from the Ab-coated probe were determined by the FortéBio® instrument.

[3] = target: T1, AD-2 peptide NETIYNTTLKYGDV; experiment: ELISA binding assay on the AD-2 peptide
[4] = target: T2, CMV gB protein (strain AD169), purified; experiment: told with the gB binding kinetics (ForteBio biosensor); reference mAb 4A2
Procedure: as §1

[5] = target: T2, CMV gB protein (strain AD169), purified; experiment: ForteBio biosensor, antibody coupled to the probe, gB in solution; remark: listed apart in the source
Procedure: as §1

Row | Binder | IC50 (µg/mL), neutralizing potency [1] [µg/mL] | Kd [2] [nM] | binding result [3] | fold higher potency than mAb 4A2 [4] [fold] | Kd [5] [nM] | koff [5] [s⁻¹] | kon [5] [M⁻¹ s⁻¹]
1 | B1 | 0.02 | 0.168 |  |  |  |  | 
2 | B2 | 0.04 | 0.697 | no binding |  |  |  | 
3 | B3 |  |  |  | ~10 | 0.8 | 1.2e-05 | 16000
4 | B4 |  |  |  | ~10 | 0.7 | 1.2e-05 | 17000
5 | B5 |  |  |  |  | 2.3 | 3.3e-05 | 14000
6 | B6 |  |  |  | ~10 |  |  | 
